Values of other authors in publication PMC4740375.
Read-outs that look alike come from different tables or passages of the source.

Columns and labels:
CD28 (Homo sapiens) [1] = target: CD28 (Homo sapiens) (UniProt P10747)
CD28 (Homo sapiens) [2] = target: CD28 (Homo sapiens) (UniProt P10747); remark: listed apart in the source

CD80 (from UniProt P33681)
Kd (CD28 (Homo sapiens) [1]): 4 µM

CD86 (from UniProt P42081)
Kd (CD28 (Homo sapiens) [2]): 20 µM
